US20110014669A1, “Production of 1,4 Butanediol in a Microorganism” (Microbia, Inc., priority 2009, published 2011)

B1: PoxBEc: Enzyme candidate for BDO biosynthetic pathway step A5, SEQ ID NO. 60 (protein, listed as Escherichia coli)
chain: MKQTVAAYIAKTLESAGVKRIWGVTGDSLNGLSDSLNRMGTIEWMSTRHEEVAAFAAGAEAQLSGELAVCAGSCGPGNLHLINGLFDCHRNHVPVLAIAAHIPSSEIGSGYFQETHPQELFRECSHYCELVSSPEQIPQVLAIAMRKAVLNRGVSVVVLPGDVALKPAPEGATMHWYHAPQPVVTPEEEELRKLAQLLRYSSNIALMCGSGCAGAHKELVEFAGKIKAPIVHALRGKEHVEYDNPYDVGMTGLIGFSSGFHTMMNADTLVLLGTQFPYRAFYPTDAKIIQIDINPASIGAHSKVDMALVGDIKSTLRALLPLVEEKADRKFLDKALEDYRDARKGLDDLAKPSEKAIHPQYLAQQISHFAADDAIFTCDVGTPTVWAARYLKMNGKRRLLGSFNHGSMANAMPQALGAQATEPERQVVAMCGDGGFSMLMGDFLSVVQMKLPVKIVVFNNSVLGFVAMEMKAGGYLTDGTELHDTNFARIAEACGITGIRVEKASEVDEALQRAFSIDGPVLVDVVVAKEELAIPPQIKLEQAKGFSLYMLRAIISGRGDEVIELAKTNWLR
B2: YeaUEc: Enzyme candidate for BDO biosynthetic pathway step A5, SEQ ID NO. 59 (protein, listed as Escherichia coli)
chain: MMKTMRIAAIPGDGIGKEVLPEGIRVLQAAAERWGFALSFEQMEWASCEYYSHHGKMMPDDWHEQLSRFDAIYFGAVGWPDTVPDHISLWGSLLKFRREFDQYVNLRPVRLFPGVPCPLAGKQPGDIDFYVVRENTEGEYSSLGGRVNEGTEHEVVIQESVFTRRGVDRILRYAFELAQSRPRKTLTSATKSNGLAISMPYWDERVEAMAENYPEIRWDKQHIDILCARFVMQPERFDVVVASNLFGDILSDLGPACTGTIGIAPSANLNPERTFPSLFEPVHGSAPDIYGKNIANPIATIWAGAMMLDFLGNGDERFQQAHNGILAAIEEVIAHGPKTPDMKGNATTPQVADAICKIILR
B3: SpeFEc: Enzyme candidate for BDO biosynthetic pathway step A5, SEQ ID NO. 63 (protein, listed as Escherichia coli)
chain: MSKLKIAVSDSCPDCFTTQRECIYINESRNIDVAAIVLSLNDVTCGKLDEIDATGYGIPVFIATENQERVPAEYLPRISGVFENCESRREFYGRQLETAASHYETQLRPPFFRALVDYVNQGNSAFDCPGHQGGEFFRRHPAGNQFVEYFGEALFRADLCNADVAMGDLLIHEGAPCIAQQHAAKVFNADKTYFVLNGTSSSNKVVLNALLTPGDLVLFDRNNHKSNHHGALLQAGATPVYLETARNPYGFIGGIDAHCFEESYLRELIAEVAPQRAKEARPFRLAVIQLGTYDGTIYNARQVVDKIGHLCDYILFDSAWVGYEQFIPMMADCSPLLLDLNENDPGILVTQSVHKQQAGFSQTSQIHKKDSHIKGQQRYVPHKRMNNAFMMHASTSPFYPLFAALNINAKMHEGVSGRNMWMDCVVNGINARKLILDNCQHIRPFVPELVDGKPWQSYETAQIAVDLRFFQFVPGEHWHSFEGYAENQYFVDPCKLLLTTPGIDARNGEYEAFGVPATILANFLRENGVVPEKCDLNSILFLLTPAEDMAKLQQLVALLVRFEKLLESDAPLAEVLPSIYKQHEERYAGYTLRQLCQEMHDLYARHNVKQLQKEMFRKEHFPRVSMNPQEANYAYLRGEVELVRLPDAEGRIAAEGALPYPPGVLCVVPGEIWGGAVLRYFSALEEGINLLPGFAPELQGVYIEEHDGRKQVWCYVIKPRDAQSTLLKGEKL
B4: MenDEc: Enzyme candidate for BDO biosynthetic pathway step A5, SEQ ID NO. 65 (protein, listed as Escherichia coli)
chain: MSVSAFNRRWAAVILEALTRHGVRHICIAPGSRSTPLTLAAAENSAFIHHTHFDERGLGHLALGLAKVSKQPVAVIVTSGTAVANLYPALIEAGLTGEKLILLTADRPPELIDCGANQAIRQPGMFASHPTHSISLPRPTQDIPARWLVSTIDHALGTLHAGGVHINCPFAEPLYGEMDDTGLSWQQRLGDWWQDDKPWLREAPRLESEKQRDWFFWRQKRGVVVAGRMSAEEGKKVALWAQTLGWPLIGDVLSQTGQPLPCADLWLGNAKATSELQQAQIVVQLGSSLTGKRLLQWQASCEPEEYWIVDDIEGRLDPAHHRGRRLIANIADWLELHPAEKRQPWCVEIPRLAEQAMQAVIARRDAFGEAQLAHRICDYLPEQGQLFVGNSLVVRLIDALSQLPAGYPVYSNRGASGIDGLLSTAAGVQRASGKPTLAIVGDLSALYDLNALALLRQVSAPLVLIVVNNNGGQIFSLLPTPQSERERFYLMPQNVHFEHAAAMFELKYHRPQNWQELETAFADAWRTPTTTVIEMVVNDTDGAQTLQQLLAQVSHL
B5: GadBEc: Enzyme candidate for BDO biosynthetic pathway step A5, SEQ ID NO. 64 (protein, listed as Escherichia coli)
chain: MDKKQVTDLRSELLDSRFGAKSISTIAESKRFPLHEMRDDVAFQIINDELYLDGNARQNLATFCQTWDDENVHKLMDLSINKNWIDKEEYPQSAAIDLRCVNMVADLWHAPAPKNGQAVGTNTIGSSEACMLGGMAMKWRWRKRMEAAGKPTDKPNLVCGPVQICWHKFARYWDVELREIPMRPGQLFMDPKRMIEACDENTIGVVPTFGVTYTGNYEFPQPLHDALDKFQADTGIDIDMHIDAASGGFLAPFVAPDIVWDFRLPRVKSISASGHKFGLAPLGCGWVIWRDEEALPQELVFNVDYLGGQIGTFAINFSRPAGQVIAQYYEFLRLGREGYTKVQNASYQVAAYLADEIAKLGPYEFICTGRPDEGIPAVCFKLKDGEDPGYTLYDLSERLRLRGWQVPAFTLGGEATDIVVMRIMCRRGFEMDFAELLLEDYKASLKYLSDHPKLQGIAQQNSFKHT
B6: PanDEc: Enzyme candidate for BDO biosynthetic pathway step A5, SEQ ID NO. 61 (protein, listed as Escherichia coli)
chain: MIRTMLQGKLHRVKVTHADLHYEGSCAIDQDFLDAAGILENEAIDIWNVTNGKRFSTYAIAAERGSRIISVNGAAAHCASVGDIVIIASFVTMPDEEARTWRPNVAYFEGDNEMKRTAKAIPVQVA
B7: LdcCEc: Enzyme candidate for BDO biosynthetic pathway step A5, SEQ ID NO. 62 (protein, listed as Escherichia coli)
chain: MNIIAIMGPHGVFYKDEPIKELESALVAQGFQIIWPQNSVDLLKFIEHNPRICGVIFDWDEYSLDLCSDINQLNEYLPLYAFINTHSTMDVSVQDMRMALWFFEYALGQAEDIAIRMRQYTDEYLDNITPPFTKALFTYVKERKYTFCTPGHMGGTAYQKSPVGCLFYDFFGGNTLKADVSISVTELGSLLDHTGPHLEAEEYIARTFGAEQSYIVTNGTSTSNKIVGMYAAPSGSTLLIDRNCHKSLAHLLMMNDVVPVWLKPTRNALGILGGIPRREFTRDSIEEKVAATTQAQWPVHAVITNSTYDGLLYNTDWIKQTLDVPSIHFDSAWVPYTHFHPIYQGKSGMSGERVAGKVIFETQSTHKMLAALSQASLIHIKGEYDEEAFNEAFMMHTTTSPSYPIVASVETAAAMLRGNPGKRLINRSVERALHFRKEVQRLREESDGWFFDIWQPPQVDEAECWPVAPGEQWHGFNDADADHMFLDPVKVTILTPGMDEQGNMSEEGIPAALVAKFLDERGIVVEKTGPYNLLFLFSIGIDKTKAMGLLRGLTEFKRSYDLNLRIKNMLPDLYAEDPDFYRNMRIQDLAQGIHKLIRKHDLPGLMLRAFDTLPEMIMTPHQAWQRQIKGEVETIALEQLVGRVSANMILPYPPGVPLLMPGEMLTKESRTVLDFLLMLCSVGQHYPGFETDIHGAKQDEDGVYRVRVLKMAG

These molecules were tested on 5-hydroxy-2-oxopentanoate (assay: Enzyme assay, decarboxylase (step A5), aldehyde dehydrogenase linked reaction). Conditions: BDO biosynthetic pathway step A5.
Type: biochemical
Design: key: +: measureable activity detected in the assay; −: no measurable activity detected in the assay
Method: Enzyme expression and crude lysate preparation. The enzymatic activity of each candidate enzyme is evaluated, first in E. coli and subsequently in C. glutamicum. It will be apparent to one of skill in the art that the expression and lysate preparations may need to be modified depending on the host cell and recombinant gene of interest.
E. coli: E. coli strains transformed with expression clones, for example, pUC18 or MB4124 based clones having a medium strong constitutive promoter regulating the recombinant gene of interest, are grown aerobically in LB medium (Difco) containing the appropriate antibiotic(s). At an OD600 of 0.5, IPTG is added to a final concentration of 0.25 mM. The cultures are grown to a final OD600 of 1.5 at which time the cells are collected and harvested by centrifugation. Cell pellets are resuspended in BugBuster (Novagen) reagent containing benzonase and lysozyme. Alternatively, E. coli strains transformed with expression clones, are grown overnight aerobically at 37° C. in BHI containing the appropriate antibiotic(s). 300 μL of fresh overnight culture is used to inoculate 2.7 mL BHI containing 0.25 mM IPTG and the appropriate antibiotic. The cultures are grown aerobically for 4-5 hours at 37° C. at which time the cells are collected and harvested by centrifugation. Cell pellets are frozen at −80° C. for at least 15 minutes, then thawed and resuspended in BugBuster (Novagen) reagent. Lysis and lysate collection are performed according to the manufacturer's instructions and, for example, may involve use of a sonicator and/or French press. Cleared lysates are stored on ice until enzyme assays are performed.
C. glutamicum: C. glutamicum strains transformed with MB4124 expression clones containing the recombinant gene of interest are grown aerobically in BHI broth supplemented with the proper antibiotic(s). At an OD600 of 0.5, IPTG is added to a final concentration of 0.25 mM. The cultures are grown to a final OD600 of 1.5 at which time the cells are collected and harvested by centrifugation. The pellet is washed once in one volume of water and resuspended in lysis buffer (1.0 ml 1.0 M HEPES buffer, pH 7.5, 0.5 ml 1M KOH, 10 μl 0.5M EDTA, protease inhibitor cocktail, water to 5 ml; the final pH will vary depending on the individual enzyme being tested) and one volume of 0.1 mm acid washed glass beads. The mixture is repeatedly alternately vortexed and held on ice for 15 seconds, eight times. After centrifugation for 5 min at 4,000 rpm, the supernatant lysate is removed and respun for 20 min at 10,000 rpm. Alternatively, C. glutamicum strains transformed with MB4124 expression clones containing the recombinant gene of interest are grown aerobically overnight in BHI broth supplemented with the proper antibiotic(s). Five mL of fresh overnight culture is used to inoculate 200 mL BHI containing 0.25 mM IPTG and the appropriate antibiotic. The cultures are grown aerobically at 30° C. for 5-7 hours at which time the cells are collected and harvested by centrifugation at 4° C. The pellet is resuspended in 15 mL ice cold 39 mM KH2PO4, 61 mM K2HPO4, 0.5 M KCl and lysed using a BioSpec BeadBeater and following the manufacturer's instructions. The lysate is centrifuged at 16,000 RPM at 4° C. for 30 minutes and the supernatant retained on ice as the extract.
Protein Assays. Protein concentrations in lysates are determined according to the methods of Bradford et al. (Anal. Biochem. 72:248-254 [1976]) or by the method of Smith et al. (Anal. Biochem. 150(1):76-85 [1985]) and lysates are assayed according to the methods below.
Enzyme Assays. Enzyme assays are performed on the cell lysates prepared above. The activity for each recombinant enzyme is compared to a lysate from a vector only control culture which is generated in a fashion identical to the recombinant enzyme lysate. […]

Which “Enzyme Assay” value does the source give for B1 here?
The value was “−”.

B2 was tested. Which “Enzyme Assay” value did it give?
Its value is “−”.

For B3, which “Enzyme Assay” value is on record?
The value was “−”.

Which “Enzyme Assay” value does the source give for B4 here?
The value was “−”.

With B5 as the molecule, how does the “Enzyme Assay” value read?
Its value is “−”.

For B6, which “Enzyme Assay” value is on record?
Its value is “−”.

B7 was tested. Which “Enzyme Assay” value did it give?
The value was “−”.
